Here are results for 1 substance from patent publication US8663912B2, “Fluorogenic substrate for ADAMTS13” (Washington University, priority 2011, dated 2014).

* marks the point of attachment. X1 = CC1(C)C(/C=C/C2=C(Cl)C(=C/C=C3/N(CCCCCC(=O)*)c4ccc5cc(S(=O)(=O)O)ccc5c4C3(C)C)/CCC2)=[N+](CCCS(=O)(=O)[O-])c2ccc(N(CCCS(=O)(=O)O)CCCS(=O)(=O)O)cc21; X2 = CC(C)(C)c1cc(/C=C/C=C2\N(CCCS(=O)(=O)O)c3ccc(S(=O)(=O)O)cc3C2(C)CCCC(=O)CCN2C(=O)CC(*)C2=O)c2ccc(N(CCCS(=O)(=O)[O-])CCCS(=O)(=O)O)cc2[o+]1

Data set [1] in a line: Solubility of substrate in water. The format is physicochemical. Conditions: sodium salt. An excerpt: The present inventors have tested several combinations of donor and quencher groups chosen for lack of interference from blood proteins. For example, modification at Cys^1610 with Alexa Fluor 594 maleimide (abs 590 nm, em 617 nm, ε 96,000) and at N-terminal. […] In one embodiment, a substrate of the present teachings is modified at Cys^1610 with DyLight 633-maleimide (Thermo, abs 638 nm, em 658 nm, ε 170,000), and at N-terminal Gly with IRDye QC-1 N-hydroxysuccinimidyl ester (LI-COR, abs 737 nm, ε 96,000). […] After RP-HPLC purification the doubly-labeled substrate (FRETS-rVWF71) is soluble at >50 μM.
In these experiments, DyLight 633 maleimide (Thermo Scientific, Waltham, Mass.) 1 mg/100 μL in dimethyl sulfoxide (DMSO) was added dropwise with stirring to peptide VWF71 (10 mg) in ≦2 mL of 100 mM sodium phosphate, pH 7.1, in the dark, and stirred overnight at room temperature. The product DyLight 633-rVWF71 was purified by HPLC on C18 using the TEAA/acetonitrile solvent system as described for the purification of VWF71. DyLight 633-rVWF71 was lyophilized and desalted on a small column of PD-10 in ≦2 mL of 100 mM sodium phosphate, pH 7.9. IRDye QC-1 N-hydroxysuccinimide ester 0.5 mg in 100 μL DMSO was added dropwise with stirring and the solution was stirred overnight at room temperature protected from light. […]

Data set [2] is described as follows: Stability and pH dependence of fluorescence of FRETS-rVWF71. The format is physicochemical. As for the experimental part:
In these experiments, DyLight 633 maleimide (Thermo Scientific, Waltham, Mass.) 1 mg/100 μL in dimethyl sulfoxide (DMSO) was added dropwise with stirring to peptide VWF71 (10 mg) in ≦2 mL of 100 mM sodium phosphate, pH 7.1, in the dark, and stirred overnight at room temperature. The product DyLight 633-rVWF71 was purified by HPLC on C18 using the TEAA/acetonitrile solvent system as described for the purification of VWF71. DyLight 633-rVWF71 was lyophilized and desalted on a small column of PD-10 in ≦2 mL of 100 mM sodium phosphate, pH 7.9. IRDye QC-1 N-hydroxysuccinimide ester 0.5 mg in 100 μL DMSO was added dropwise with stirring and the solution was stirred overnight at room temperature protected from light. The product FRETS-rVWF71 was purified by reverse phase HPLC, lyophilized, dissolved in ≦0.5 mL of deionized water and applied onto a column (7×230 mm) of Amberlite IR120 sodium form. FRETS-rVWF71 product was eluted with deionized water and lyophilized or concentrated by ultrafiltration to ≧250 μM. The concentration was verified by amino acid analysis (The Protein Chemistry Laboratory, Texas A&M University).

In the case of “X1-GQAPNLVYMVTGC(X2)PASDEIRRLPGDIQVVPIGVGPNANVQELERIGWPNAPILIQDFETLPREAPDLVLQR [FRETS-rVWF71]”, the solubility in data set [1] is above 250 µM. In data set [2] (excitation 635 nm, uncleaved and fully cleaved substrate, between pH 5 and pH 10), the “variation of fluorescence emission at 660 nm with pH” value is on record as below 7%. Further, in data set [2] (sodium salt), the “stability of final product” value is on record as “stable”. In addition, in data set [2] (working stocks at −20° C. thawed and refrozen repeatedly over several months), the stability on storage entry is “without any change in stability or chemical properties”.

By solubility is commonly meant the concentration that dissolves in the medium under given conditions.
